Laboratory results as given in US20240016931A1 (JIANGSU HENGRUI PHARMACEUTICALS, published 2024).

Target: T1, His-tagged human TSLP antigen (huTSLP-his) (human)
T1 construct: Secreted from HEK293E and purified on nickel; whole entry named; also called Human TSLP-his
Assay: ELISA, coated huTSLP-his;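 note: binding of antibodies to plate-bound TSLP read as absorbance at 450 nm after TMB colour development, EC50 derived from binding curves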
Protocol: The plate was incubated at 4° C. overnight. After the liquid was discarded, 5% skim milk (skim milk powder from Brightdairy) blocking solution diluted with PBS was added at 200 μL/well, and the plate was incubated in an incubator at 37° C. for 2 h for blocking. After the blocking, the blocking solution was discarded, and the plate was washed 3 times with a PBST buffer (PBS containing 0.1% (v/v) tween-20, pH 7.4). […] After the incubation, the plate was washed 3 times with PBST. […] After the plate was washed 6 times with PBST, a TMB chromogenic substrate (KPL, 52-00-03) was added at 50 μL/well, and the plate was incubated at room temperature for 10-15 min. Then, 1 M H₂SO₄ was added at 50 μL/well to stop the reaction. The absorbance at 450 nm was read with a NOVOStar microplate reader, and the EC₅₀ values for the binding of the TSLP antibodies to TSLP were calculated.

B1: hu3-06 (antibody, human IgG1, kappa, V domains shown)
VH: EVQLVQSGAEVKKPGASVKVSCKASGYTFTDDYMNWVRQAPGQRLEWMGIISPYNGGTSYNQKFKGRVTLTVDKSASTAYMELSSLRSEDTAVYYCAREDYDYDGYAMDHWGQGTTVTVSS
VL: EIVLTQSPATLSLSPGERATLSCRASSSVSYMHWYQQKPGQAPRPWIYATSNLASGVPARFSGSGSGTDYTLTISRLEPEDFAVYYCQQWSSNRTFGGGTKVEIKR
notes: IgG1-YTE, kappa
For B1, which EC50 is on record?
The EC50 was 0.594 nM.

B2: hu3-08 (antibody, human IgG1, kappa, V domains shown)
VH: EVQLVQSGAEVKKPGASVKVSCKASGYTFTDDYMNWVKQAPGQRLEWIGIISPYNGGTSYNQKFKGRATLTVDKSASTAYMELSSLRSEDTAVYYCAREDYDYDGYAMDHWGQGTTVTVSS
VL: EIVLTQSPATLSLSPGERATLSCRASSSVSYMHWYQQKPGQAPRPLIYATSNLASGIPARFSGSGSGTDYTLTISRLEPEDFAVYYCQQWSSNRTFGGGTKVEIKR
notes: IgG1-YTE, kappa
Which EC50 does the source give for B2 here?
Its EC50 is 0.469 nM.

B3: hu3-10 (antibody, human IgG1, kappa, V domains shown)
VH: EVQLVQSGAEVKKPGASVKVSCKASGYTFTDDYMNWVKQAPGQRLEWIGIISPYNGGTSYNQKFKGRATLTVDKSASTAYMELSSLRSEDTAVYYCAREDYDYDGYAMDHWGQGTTVTVSS
VL: EIVLTQSPATLSLSPGERATLSCRASSSVSYMHWYQQKPGQAPRPWIYATSNLASGVPARFSGSGSGTSYTLTISRLEPEDFAVYYCQQWSSNRTFGGGTKVEIKR
notes: IgG1-YTE, kappa
Which EC50 does the source give for B3 here?
The EC50 was 0.388 nM.

B4: hu3-04 (antibody, human IgG1, kappa, V domains shown)
VH: EVQLVQSGAEVKKPGASVKVSCKASGYTFTDDYMNWVRQAPGQRLEWMGIISPYNGGTSYNQKFKGRVTLTVDKSASTAYMELSSLRSEDTAVYYCAREDYDYDGYAMDHWGQGTTVTVSS
VL: EIVLTQSPATLSLSPGERATLSCRASSSVSYMHWYQQKPGQAPRLLIYATSNLASGIPARFSGSGSGTDFTLTISRLEPEDFAVYYCQQWSSNRTFGGGTKVEIKR
notes: IgG1-YTE, kappa
How did the EC50 turn out when B4 was run?
Its EC50 is 0.435 nM.

B5: hu3-09 (antibody, human IgG1, kappa, V domains shown)
VH: EVQLVQSGAEVKKPGASVKVSCKASGYTFTDDYMNWVKQAPGQRLEWIGIISPYNGGTSYNQKFKGRATLTVDKSASTAYMELSSLRSEDTAVYYCAREDYDYDGYAMDHWGQGTTVTVSS
VL: EIVLTQSPATLSLSPGERATLSCRASSSVSYMHWYQQKPGQAPRPWIYATSNLASGVPARFSGSGSGTDYTLTISRLEPEDFAVYYCQQWSSNRTFGGGTKVEIKR
notes: IgG1-YTE, kappa
B5 was tested. Which EC50 did it give?
Its EC50 is 0.494 nM.

B6: hu3-01 (antibody, human IgG1, kappa, V domains shown)
VH: EVQLVQSGAEVKKPGASVKVSCKASGYTFTDDYMNWVRQAPGQRLEWMGIISPYNGGTSYNQKFKGRVTITRDTSASTAYMELSSLRSEDTAVYYCAREDYDYDGYAMDHWGQGTTVTVSS
VL: EIVLTQSPATLSLSPGERATLSCRASSSVSYMHWYQQKPGQAPRPLIYATSNLASGIPARFSGSGSGTDYTLTISRLEPEDFAVYYCQQWSSNRTFGGGTKVEIKR
notes: IgG1-YTE, kappa
B6 was tested. Which EC50 did it give?
The EC50 was 0.849 nM.

B7: hu3-05 (antibody, human IgG1, kappa, V domains shown)
VH: EVQLVQSGAEVKKPGASVKVSCKASGYTFTDDYMNWVRQAPGQRLEWMGIISPYNGGTSYNQKFKGRVTLTVDKSASTAYMELSSLRSEDTAVYYCAREDYDYDGYAMDHWGQGTTVTVSS
VL: EIVLTQSPATLSLSPGERATLSCRASSSVSYMHWYQQKPGQAPRPLIYATSNLASGIPARFSGSGSGTDYTLTISRLEPEDFAVYYCQQWSSNRTFGGGTKVEIKR
notes: IgG1-YTE, kappa
B7 was tested. Which EC50 did it give?
The EC50 was 0.517 nM.

B8: hu3-12 (antibody, human IgG1, kappa, V domains shown)
VH: EVQLVQSGAEVKKPGASVKVSCKASGYTFTDDYMNWVRQAPGQRLEWMGIISPYNGGTSYNQKFKGRVTLTVDKSASTAYMELSSLRSEDTAVYYCAREDYDYDGYAMDYWGQGTTVTVSS
VL: EIVLTQSPATLSLSPGERATLSCRASSSVSYMHWYQQKPGQAPRPWIYATSNLASGVPARFSGSGSGTSYTLTISRLEPEDFAVYYCQQSDNVRGFGGGTKVEIKR
notes: IgG1-YTE, kappa; also called hu3VH2-H110Y + hu3VL5
Which EC50 does the source give for B8 here?
The EC50 was 0.152 nM.

B9: hu3-03 (antibody, human IgG1, kappa, V domains shown)
VH: EVQLVQSGAEVKKPGASVKVSCKASGYTFTDDYMNWVRQAPGQRLEWMGIISPYNGGTSYNQKFKGRVTITRDTSASTAYMELSSLRSEDTAVYYCAREDYDYDGYAMDHWGQGTTVTVSS
VL: EIVLTQSPATLSLSPGERATLSCRASSSVSYMHWYQQKPGQAPRPWIYATSNLASGVPARFSGSGSGTSYTLTISRLEPEDFAVYYCQQWSSNRTFGGGTKVEIKR
notes: IgG1-YTE, kappa
How did the EC50 turn out when B9 was run?
Its EC50 is 0.554 nM.

B10: hu3-07 (antibody, human IgG1, kappa, V domains shown)
VH: EVQLVQSGAEVKKPGASVKVSCKASGYTFTDDYMNWVRQAPGQRLEWMGIISPYNGGTSYNQKFKGRVTLTVDKSASTAYMELSSLRSEDTAVYYCAREDYDYDGYAMDHWGQGTTVTVSS
VL: EIVLTQSPATLSLSPGERATLSCRASSSVSYMHWYQQKPGQAPRPWIYATSNLASGVPARFSGSGSGTSYTLTISRLEPEDFAVYYCQQWSSNRTFGGGTKVEIKR
notes: IgG1-YTE, kappa
B10 was tested. Which EC50 did it give?
Its EC50 is 0.385 nM.

B11: hu3-02 (antibody, human IgG1, kappa, V domains shown)
VH: EVQLVQSGAEVKKPGASVKVSCKASGYTFTDDYMNWVRQAPGQRLEWMGIISPYNGGTSYNQKFKGRVTITRDTSASTAYMELSSLRSEDTAVYYCAREDYDYDGYAMDHWGQGTTVTVSS
VL: EIVLTQSPATLSLSPGERATLSCRASSSVSYMHWYQQKPGQAPRPWIYATSNLASGVPARFSGSGSGTDYTLTISRLEPEDFAVYYCQQWSSNRTFGGGTKVEIKR
notes: IgG1-YTE, kappa
How did the EC50 turn out when B11 was run?
The EC50 was 0.628 nM.

B12: hu179-09 (antibody, human IgG1, kappa)
heavy: EVQLVQSGAEVKKPGSSVKVSCKASGYTFSNYLIEWVRQAPGQGLEWIGVIDPGNGDTNYNENFKGRATLTADKSTSTAYIELSSLRSEDTAVYYCAREDNTGTAFDYWGQGTTVTVSSASTKGPSVFPLAPSSKSTSGGTAALGCLVKDYFPEPVTVSWNSGALTSGVHTFPAVLQSSGLYSLSSVVTVPSSSLGTQTYICNVNHKPSNTKVDKKVEPKSCDKTHTCPPCPAPELLGGPSVFLFPPKPKDTLYITREPEVTCVVVDVSHEDPEVKFNWYVDGVEVHNAKTKPREEQYNSTYRVVSVLTVLHQDWLNGKEYKCKVSNKALPAPIEKTISKAKGQPREPQVYTLPPSRDELTKNQVSLTCLVKGFYPSDIAVEWESNGQPENNYKTTPPVLDSDGSFFLYSKLTVDKSRWQQGNVFSCSVMHEALHNHYTQKSLSLSPGK
light: SIVMTQTPLSLSVTPGQPASISCKASQSVSSDVTWYLQKPGQSPQLLIYYVSNHYTGVPDRFSGSGSGTDFTLKISRVEAEDVGVYYCQQHHRFPLTFGQGTKLEIKRTVAAPSVFIFPPSDEQLKSGTASVVCLLNNFYPREAKVQWKVDNALQSGNSQESVTEQDSKDSTYSLSSTLTLSKADYEKHKVYACEVTHQGLSSPVTKSFNRGEC
notes: IgG1-YTE, kappa
For B12, which EC50 is on record?
Its EC50 is 0.157 nM.

B13: hu179-08 (antibody, human IgG1, kappa)
heavy: EVQLVQSGAEVKKPGSSVKVSCKASGYTFSNYLIEWVRQAPGQGLEWIGVIDPGNGDTNYNENFKGRATLTADKSTSTAYIELSSLRSEDTAVYYCAREDNTGTAFDYWGQGTTVTVSSASTKGPSVFPLAPSSKSTSGGTAALGCLVKDYFPEPVTVSWNSGALTSGVHTFPAVLQSSGLYSLSSVVTVPSSSLGTQTYICNVNHKPSNTKVDKKVEPKSCDKTHTCPPCPAPELLGGPSVFLFPPKPKDTLYITREPEVTCVVVDVSHEDPEVKFNWYVDGVEVHNAKTKPREEQYNSTYRVVSVLTVLHQDWLNGKEYKCKVSNKALPAPIEKTISKAKGQPREPQVYTLPPSRDELTKNQVSLTCLVKGFYPSDIAVEWESNGQPENNYKTTPPVLDSDGSFFLYSKLTVDKSRWQQGNVFSCSVMHEALHNHYTQKSLSLSPGK
light: DIVMTQTPLSLSVTPGQPASISCKASQSVSSDVTWYLQKPGQSPQLLIYYVSNHYTGVPDRFSGSGSGTDFTLKISRVEAEDVGVYYCQQHHRFPLTFGQGTKLEIKRTVAAPSVFIFPPSDEQLKSGTASVVCLLNNFYPREAKVQWKVDNALQSGNSQESVTEQDSKDSTYSLSSTLTLSKADYEKHKVYACEVTHQGLSSPVTKSFNRGEC
notes: IgG1-YTE, kappa
For B13, which EC50 is on record?
The EC50 was 0.162 nM.

B14: hu179-11 (antibody, human IgG1, kappa, V domains shown)
VH: EVQLVQSGAEVKKPGSSVKVSCKASGYTFSNYLIEWVRQAPGQGLEWIGVIDPGNGDTNYNENFKGRATLTADKSTSTAYIELSSLRSEDTAVYYCAREDNTGTAFDYWGQGTTVTVSS
VL: SIVMTQTPLSLSVTPGQPASISCKASQSVSSDVTWYLQKPGQSPQLLIYYVSNHYTGVPDRFSGSGYGTDFTLKISRVEAEDVGVYYCQQHHRFPLTFGQGTKLEIKR
notes: IgG1-YTE, kappa
For B14, which EC50 is on record?
The EC50 was 0.137 nM.

B15: hu179-10 (antibody, human IgG1, kappa, V domains shown)
VH: EVQLVQSGAEVKKPGSSVKVSCKASGYTFSNYLIEWVRQAPGQGLEWIGVIDPGNGDTNYNENFKGRATLTADKSTSTAYIELSSLRSEDTAVYYCAREDNTGTAFDYWGQGTTVTVSS
VL: SIVMTQTPLSLSVTPGQPASISCKASQSVSSDVTWYLQKPGQSPQLLIYYVSNHYTGVPDRFSGSGSGTDFTFKISRVEAEDVGVYYCQQHHRFPLTFGQGTKLEIKR
notes: IgG1-YTE, kappa
For B15, which EC50 is on record?
The EC50 was 0.19 nM.

B16: hu179-16 (antibody, human IgG1, kappa)
heavy: EVQLVQSGAEVKKPGSSVKVSCKASGYAFSNYLIEWVRQAPGQGLEWIGVIDPGNGDTNYNENFKGRATLTADKSTSTAYMELSSLRSEDTAVYYCAREDNTGTAFDYWGQGTTVTVSSASTKGPSVFPLAPSSKSTSGGTAALGCLVKDYFPEPVTVSWNSGALTSGVHTFPAVLQSSGLYSLSSVVTVPSSSLGTQTYICNVNHKPSNTKVDKKVEPKSCDKTHTCPPCPAPELLGGPSVFLFPPKPKDTLYITREPEVTCVVVDVSHEDPEVKFNWYVDGVEVHNAKTKPREEQYNSTYRVVSVLTVLHQDWLNGKEYKCKVSNKALPAPIEKTISKAKGQPREPQVYTLPPSRDELTKNQVSLTCLVKGFYPSDIAVEWESNGQPENNYKTTPPVLDSDGSFFLYSKLTVDKSRWQQGNVFSCSVMHEALHNHYTQKSLSLSPGK
light: DIVMTQTPLSLSVTPGQPASISCKASQSVSSDVTWYLQKPGQSPQLLIYYVSNHYTGVPDRFSGSGSGTDFTLKISRVEAEDVGVYYCQQHHRFPLTFGQGTKLEIKRTVAAPSVFIFPPSDEQLKSGTASVVCLLNNFYPREAKVQWKVDNALQSGNSQESVTEQDSKDSTYSLSSTLTLSKADYEKHKVYACEVTHQGLSSPVTKSFNRGEC
notes: IgG1-YTE, kappa
With B16 as the binder, how does the EC50 read?
The EC50 was 0.229 nM.
